Assay [1] deals with HLA-B*40:01. Kind of assay: IEDB peptide-MHC binding, purified MHC/competitive/radioactivity; filed as Kd, often an IC50 or EC50 that approximates it; ≥ and ≤ were set here for values at or beyond the usual limits of such assays.
The target of assay [2] is HLA-B*44:02. The assay is described as above. Conditions: source organism: Dengue virus 3 Martinique/1243/1999.
The target in assay [3] is HLA-B*44:03. The assay is described as above. Conditions: source organism: Dengue virus 3 Martinique/1243/1999.
The target in assay [4] is HLA-A*01:01. The assay is described as above.
For assay [5], the target named is HLA-A*23:01. Described as above.
Assay [6] deals with HLA-A*24:02. Described as above.
Assay [7] deals with HLA-A*26:01. The description is as above.
The target in assay [8] is HLA-A*29:02. Described as above.
For assay [9], the target named is HLA-A*30:02. Described as above.
The target of assay [10] is HLA-B*53:01. The description is as above.
Assay [11] concerns the target HLA-A*01:01. Put plainly: IEDB peptide-MHC binding, purified MHC/direct/fluorescence; filed as Kd, often an IC50 or EC50 that approximates it; ≥ and ≤ were set here for values at or beyond the usual limits of such assays. To be noted: source organism: SARS-CoV1.
The target of assay [12] is HLA-A*03:01. The assay is described as above. Conditions: source organism: SARS-CoV1.
Assay [13] addresses HLA-A*11:01. Described as above. To be noted: source organism: SARS-CoV1.
For assay [14], the target named is HLA-B*58:01. Described as above. To be noted: source organism: SARS-CoV1.
Setting [15] is: source organism: Dengue virus 3 Martinique/1243/1999.
[16] abbreviates: source organism: SARS coronavirus Tor2.
[17] abbreviates: source organism: Dengue virus 4 Philippines/H241/1956.
Setting [18] is: source organism: Mammarenavirus machupoense.
Setting [19] is: source organism: Dengue virus 2 Jamaica/1409/1983.
The mark [20] stands for this setting: source organism: Mammarenavirus brazilense.
The mark [21] stands for this setting: source organism: Lymphocytic choriomeningitis virus (strain Armstrong).
Where [22] appears, read: source organism: Mammarenavirus guanaritoense.
The mark [23] stands for this setting: source organism: Triticum aestivum.

One may read the Kd as the concentration at which binding is half-saturated. With GESNIVIGI, the Kd turned out to be 2.36 nM in assay [1] (setting [15]), 10.8 nM in assay [2] and 5.95 nM in [3].

Regarding MWLSYFVASF, the dissociation constant (Kd) in [4] (setting [16]) was 1140 nM; in assay [5] (setting [16]), 0.257 nM; in assay [6] (setting [16]) it was 15.4 nM; in assay [7] (setting [16]) it was 142 nM; in assay [8] (setting [16]), 38.5 nM; in assay [9] (setting [16]), 2400 nM.

Turning to GEFRLRGEQR, in [1] (setting [17]), the Kd was 1400 nM.

On to EPSKGWKNW, for which the Kd in assay [10] (setting [17]) stood at 608 nM.

Turning to GTDSGFAAY, the Kd is 13 nM in assay [11]; 714 nM in [12]; 103 nM in [13]; 11600 nM in assay [14]; no less than 77800 nM in [5] (setting [16]); no less than 77600 nM in [6] (setting [16]). Also, the values for the Kd in assay [7] (setting [16]), in assay [8] (setting [16]) and in assay [9] (setting [16]) were 2350 nM, 52.9 nM and 15.7 nM, respectively.

In the case of LSSGEPHCA, the Kd is 4360 nM in assay [4] (setting [18]); no less than 48000 nM in assay [5] (setting [18]); no less than 77500 nM in [6] (setting [18]); no less than 77900 nM in assay [7] (setting [18]); no less than 78900 nM in assay [8] (setting [18]); 4600 nM in assay [9] (setting [18]).

As for LWYAQIQPHW, the results for the Kd in [5] (setting [19]) and in [6] (setting [19]) were 203 nM and 13.1 nM, respectively.

On to PYLGKREDLW, for which the Kd turned out to be 505 nM in [5] (setting [17]) and 1620 nM in [6] (setting [17]).

In the case of VTDVTLLMA, the Kd is 8.7 nM in [4] (setting [20]); 18200 nM in assay [5] (setting [20]); no less than 77500 nM in [6] (setting [20]); no less than 77900 nM in assay [7] (setting [20]); no less than 23400 nM in assay [8] (setting [20]); 423 nM in [9] (setting [20]).

With VEIWTKEGEK, the Kd in [1] (setting [15]) was 754 nM.

ESVKTQFNY: the Kd is 2610 nM in assay [4] (setting [16]); no less than 77800 nM in assay [5] (setting [16]); no less than 77600 nM in [6] (setting [16]); 902 nM in [7] (setting [16]); 31.2 nM in [8] (setting [16]); 505 nM in assay [9] (setting [16]).

As for STSQKSIVAY, the Kd in [4] (setting [16]) is 534 nM; in assay [5] (setting [16]), no less than 70000 nM; in assay [6] (setting [16]), no less than 70300 nM; in assay [7] (setting [16]), 790 nM; in assay [8] (setting [16]), 44.5 nM; in [9] (setting [16]), 17.1 nM.

As for MIDKTPVHSW, the Kd in assay [10] (source organism: Dengue virus 4 Thailand/0348/1991) was 725 nM.

Consider AYNVVNKGHF, for which the Kd in [4] (setting [16]) is no less than 55200 nM; in assay [5] (setting [16]) it was 476 nM; in assay [6] (setting [16]) it was 316 nM; in assay [7] (setting [16]), no less than 37500 nM; in assay [8] (setting [16]), 978 nM; in assay [9] (setting [16]), 11200 nM.

Take SYSMCTGKF: the Kd is 142 nM in assay [5] (setting [19]) and 108 nM in [6] (setting [19]).

Turning to SLSLISHVV, the Kd in assay [4] (setting [21]) was no less than 44700 nM; in assay [5] (setting [21]), no less than 77700 nM; in [6] (setting [21]), no less than 77500 nM; in [7] (setting [21]), no less than 77900 nM; in assay [8] (setting [21]), no less than 60400 nM; in assay [9] (setting [21]), 1440 nM.

As for KEENMVKSLV, the Kd in assay [1] (setting [15]) stood at 243 nM.

Turning to QPSKGWHDW, the Kd in assay [10] (setting [15]) stood at 207 nM.

For the sequence MSPALFHAFF, the Kd was determined as 148 nM in assay [5] (setting [22]), 122 nM in assay [6] (setting [22]) and 513 nM in assay [8] (setting [22]).

Consider ASEFSSLPSY, for which the Kd was 14.1 nM in assay [4] (setting [16]); no less than 70000 nM in [5] (setting [16]); no less than 70300 nM in [6] (setting [16]); 11900 nM in [7] (setting [16]); 102 nM in assay [8] (setting [16]); 47.4 nM in [9] (setting [16]).

As for LTALRLCAY, the Kd in [4] (setting [16]) is 7.86 nM; in [5] (setting [16]), 7110 nM; in assay [6] (setting [16]), no less than 35300 nM; in assay [7] (setting [16]), 961 nM; in assay [8] (setting [16]), 136 nM; in assay [9] (setting [16]), 54.5 nM.

In the case of QYPLGQGSF, the Kd in assay [4] (setting [23]) was no less than 71000 nM; in [5] (setting [23]) it was 8090 nM; in assay [6] (setting [23]) it was 1450 nM; in assay [7] (setting [23]), no less than 77900 nM; in [8] (setting [23]), no less than 22900 nM; in [9] (setting [23]) it was 1460 nM.

Source of the values: the Immune Epitope Database (IEDB).
